This note sets out measurements from patent US20030235860A1, “Interactions between AR, ER, TR2, and TR4” (priority 1999, published 2003).

No end group written: not given here.

For this assay, the target named is T1, ER (Homo sapiens, UniProt P03372, G400V).
T1 construct: Full-length ER and TR2 in eukaryotic expression vectors (pSG5-ER and pCMV-TR2) were co-transfected; expressed in transfected cells; host or cells: PC-3 and H1299 (pSG5-ER transfected)
T1 sequence (P03372 1-595 G400V): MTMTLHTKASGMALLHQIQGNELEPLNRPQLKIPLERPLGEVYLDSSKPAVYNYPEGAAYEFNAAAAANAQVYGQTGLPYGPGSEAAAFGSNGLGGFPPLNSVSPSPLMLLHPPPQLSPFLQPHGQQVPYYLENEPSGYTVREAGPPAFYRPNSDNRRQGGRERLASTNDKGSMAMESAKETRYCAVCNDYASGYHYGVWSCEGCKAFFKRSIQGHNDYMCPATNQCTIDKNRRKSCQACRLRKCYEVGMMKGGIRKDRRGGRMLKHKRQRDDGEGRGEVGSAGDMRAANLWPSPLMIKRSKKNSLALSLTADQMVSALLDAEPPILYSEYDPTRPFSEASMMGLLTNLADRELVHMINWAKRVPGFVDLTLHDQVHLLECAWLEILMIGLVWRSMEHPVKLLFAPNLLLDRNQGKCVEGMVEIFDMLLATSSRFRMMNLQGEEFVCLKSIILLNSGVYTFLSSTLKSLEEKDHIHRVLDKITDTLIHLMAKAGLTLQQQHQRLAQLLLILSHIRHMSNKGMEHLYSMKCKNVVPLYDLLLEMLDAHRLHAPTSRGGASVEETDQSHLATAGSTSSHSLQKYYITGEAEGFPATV
As to the kind of experiment: ER-mediated transactivation reporter assay (ERE-CAT / ERE-Luc). It is filed as cell-based. Conditions: for Activity ER (effect of regulator on transcription activity): Table 5. As to the method: Transfections and chloramphenicol acetyltransferase (CAT) assays were performed as described previously. Yeh, & Chang, Proc. Natl. Acad. Sci. 93, 5517-5521 (1996). Briefly, 4×10^5 cells were plated in 60-mm dishes and cultured for 24 h, and then the medium was changed to phenol red free DMEM with 5% charcoal-stripped FCS 2 h before transfection. The cells were co-transfected with TR2 and/or ER expression plasmids with 2 μg of TR2-TK-CAT reporter or 1 μg of ERE-CAT reporter gene plasmid, as indicated in the Figures, by using the calcium phosphate precipitation method. A β-gal actosidase expression plasmid, pCMV-β-gal, was transfected in all transfections as an internal control for normalizing transfection efficiency. The total amount of DNA was adjusted up to 10.5 μg with parent vectors, pSG5 or pCMV in each transcriptional activity assay. […] The cells were then harvested and whole cell extracts were used for CAT assay. The CAT activity was quantitated by Phosphorlmager (Molecular Dynamics). Data are presented as means±S.D. of at least three independent experiments.
Transfections and chloramphenicol acetyltransferase (CAT) assays were performed using the calcium phosphate precipitation method, as described previously (Yeh, S. et al. (2000) Proc. Natl. Acad. Sci. USA 97, 11256-61). CAT reporter plasmids containing one copy of estrogen response element (ERE-CAT), or mouse mammary tumor virus (MMTV-CAT) were used as indicated. Also, a β-galactosidase expression plasmid, pCMV-β-gal, was used for transfection efficiency.
H1299 and MCF-7 cells were maintained in Dulbecco's modified eagle medium (DMEM) containing penicillin (25 units/ml), streptomycin (25 μg/ml), and 10% fetal calf serum (FBS). Transfections were performed using the calcium phosphate precipitation method, as described previously (Lee, Y. et al. (1999) Proc. Natl. Acad Sci. USA. 96(26) 14724-9). Briefly, 3×10^5 cells were plated on 60-mm dishes for 24 h before transfection, and the medium was changed to DMEM with 10% charcoal/dextran-stripped FBS. H1299 cells were transfected with an ER expression plasmid (pSG5-ER or pCMV-mERβ, ERE-chloramphenicol acetyltransferase (ERE-CAT) or pSG5-PR and MMTV-Luciferase reporter plasmid, and a TR4 expression plasmid (pCMV-TR4) ERZ-CAT Bradshaw et al., (1991) J. Biol. Chem. 266:16684-16690 and pCMVB-gal and PSV-RL from promega, all of which are herein incorporated by reference at least for material related to plasmids and assays, including sequence.) MCF-7 cells were only transfected with ERE-CAT reporter and TR4 expression plasmid. For all transfection experiments, pCMVβ-gal (CAT assay) or pSV-40 RL (Luciferase assay) was used as an internal control for transfection efficiency and the total amount of transfected DNA was adjusted to 12 μg with pCMV. […] After another 24 h, the cells were harvested for CAT assay or Luciferase assay. The CAT activity was visualized by Phosphorlmager (Molecular Dynamics) and quantitated by IMAGEQUANT software (Molecular Dynamics). The luciferase activity was determined by the Luminometer (Turner Designs).

As to “ER-#6: interaction blocker, ER fragment aa 312-340, as HA-tagged peptide, expression plasmid or cleaved peptide (ADQMVSALLDAEPPILYSEYDPTRPFSEA; also: HA tag (position not given here); UniProt P03372 312-340, looked up, fragment)”, the “Effect on TR2-mediated suppression of ER transcription (ERE-CAT)” value (MCF7-TR2 cells, E2 and doxycycline) is listed as “reversing this suppression”. Besides, the “ER transcription (ERE-luciferase)” value (MCF7 cells, increasing amounts of plasmid) is given as “enhance ER transcription”.

B1: TR2: human testicular orphan nuclear receptor 2, 603 amino acids (protein, UniProt P13056 1-603, looked up)
chain: MATIEEIAHQIIEQQMGEIVTEQQTGQKIQIVTALDHNTQGKQFILTNHDGSTPSKVILARQDSTPGKVFLTTPDAAGVNQLFFTTPDLSAQHLQLLTDNSPDQGPNKVFDLCVVCGDKASGRHYGAVTCEGCKGFFKRSIRKNLVYSCRGSKDCIINKHHRNRCQYCRLQRCIAFGMKQDSVQCERKPIEVSREKSSNCAASTEKIYIRKDLRSPLTATPTFVTDSESTRSTGLLDSGMFMNIHPSGVKTESAVLMTSDKAESCQGDLSTLANVVTSLANLGKTKDLSQNSNEMSMIESLSNDDTSLCEFQEMQTNGDVSRAFDTLAKALNPGESTACQSSVAGMEGSVHLITGDSSINYTEKEGPLLSDSHVAFRLTMPSPMPEYLNVHYIGESASRLLFLSMHWALSIPSFQALGQENSISLVKAYWNELFTLGLAQCWQVMNVATILATFVNCLHNSLQQDKMSTERRKLLMEHIFKLQEFCNSMVKLCIDGYEYAYLKAIVLFSPDHPSLENMEQIEKFQEKAYVEFQDYITKTYPDDTYRLSRLLLRLPALRLMNATITEELFFKGLIGNIRIDSVIPHILKMEPADYNSQIIGHSI
modifications: full-length
notes: human testicular orphan nuclear receptor 2, 603 amino acids
For the molecule B1, the “Activity ER (effect of regulator on transcription activity)” value is “Down”. Besides, the “E2-induced ER transcription (ERE-CAT)” value (MCF7-TR2 cells, doxycycline-induced TR2) is “significantly repressed”. Also, where the note is “PC-3 and H1299 cells, 10 nM E2, increasing TR2 expression vector”, the “ERE-CAT activity, transfected ER” value is recorded as “suppression of ER transactivation in a dose-dependent manner”. For the setting “T47D cells, increasing TR2 expression plasmid”, the “Endogenous ER-mediated ERE-CAT activity” value is reported as “repress”. For the same molecule, the “ER-mediated transcription (ERE-CAT or ERE-luciferase)” value (exogenous ER (PC-3, H1299) or endogenous ER (MCF7, T47D), Example 2) is on record as “consistently suppressed”.

B2: TR4: human testicular orphan nuclear receptor 4, SEQ ID NO:16; expressed from plasmid or in vitro translated (protein)
chain: MTSPSPRIQIISTDSAVASPQRIQGSEPASGPLSVFTSLNKEKIVTDQQTGQKIQIVTAVDASGSPKQQFILTSPDGAGTGKVILASPETSSAKQLIFTTSDNLVPGRIQIVTDSASVERLLGKTDVQRPQVVEYCVVCGDKASGRHYGAVSCEGCKGFFKRSVRKNLTYSCRSSQDCIINKHHRNRCQFCRLKKCLEMGMKMESVQSERKPFDVQREKPSNCAASTEKIYIRKDLRSPLIATPTFVADKDGARQTGLLDPGMLVNIQQPLIREDGTVLLATDSKAETSQGALGTLANVVTSLANLSESLNNGDTSEIQPEDQSASEITRAFDTLAKALNTTDSSSSPSLADGIDTSGGGSIHVISRDQSTPIIEVEGPLLSDTHVTFKLTMPSPMPEYLNVHYICESASRLLFLSMHRARSIPAFQGLGQDCNTSLVRACWNELFTLGLAQCAQVMSLSTILAAIVNHLQNSIQEDKLSGDRIKQVMEHIWKLQEFCNSMANWDIDGYEYAYLKAIVLFSPDHPGLTSTSQIEKFQEKAQMELQDYVQKTYSEDTYRLARILVRLPALRLMSSNITEELFFTGLIGNVSIDSIIPYILKMETAEYNGQITGVSL
B2: the “Activity ER (effect of regulator on transcription activity)” value is on record as “Down”. Also, the “E2-induced ERE-CAT activity, ERα” value (H1299 cells, 10 nM E2, increasing TR4 expression plasmid) is listed as “suppression of the E2-induced CAT activity in a dose-dependent manner”. Besides, the “ER transactivation (ERE-CAT)” value (H1299 cells, ERα, 10 nM E2, full-length or C-terminal deletion TR4) is “repress ER transactivation in a dose-dependent manner”. Also, the ERE-CAT activity result (MCF-7-TR4 cells, 2 μg/ml Dox-induced TR4) was “repress”. Also, the “Endogenous ER-mediated CAT reporter activity” value (MCF-7 cells, increasing TR4) is “gradual decrease”.
